Consider three molecules from patent US7718353B2, “Proteins, sensors, and methods of characterizing analytes using the same” (University of Maryland Baltimore County, priority 2003, dated 2010).

The nature of data set [1]: Fluorescence binding isotherm of labeled S179C GlnBP. The settings on record: fit to binding isotherm, read-out: binding constant for glutamine. The method, then:
The emission spectra were recorded on a Varian Cary Eclipse fluorescence spectrophotometer (Varian Instruments, Walnut Creek, Calif.). All samples were measured in quartz cuvettes (Starna Cells, Inc., Atascadero, Calif.).
The apparent binding constants were calculated by fitting the experimental results to the binding isotherm (DATTELBAUM et al., Anal. Biochem., 291:89-95 (2001), which is incorporated by reference herein). The binding constants for the single-labeled and doubled-labeled GlnBP were calculated to be 0.23±0.01 μM and 0.28±0.03 μM, respectively. Both were in agreement with the reported value of 100-300 nM for the wild type (SOHANPAL et al., Sensors Actuators B, 11:547-552 (1993), which is incorporated by reference herein). While not wishing to be bound by theory, the reason for this agreement is believed to be that the position of the fluorophore is far from the binding site, consequently, the binding affinity is not greatly affected. The binding constant of GBP for glucose was calculated to be 0.78±0.07 μM, which also agrees well with the reported value of 0.8 μM (HELLINGA et al., Trends Biotechnol., 16:183-189 (1998), which is incorporated by reference herein).

The nature of data set [2]: Stability and reproducibility of labeled binding proteins by binding assays. In kind it is physicochemical. The settings on record: 5 months after preparation. The procedure: The stability of the binding proteins was determined by binding assays. The labeled binding proteins can be stored in phosphate buffer at 4° C. for at least 5 months. […] While not wishing to be bound by theory, factors that could have caused this change include fluorophore and protein. In any case, the recalibration of the biosensor during its use in fermentation or cell culture is unnecessary because fermentation or cell culture usually lasts from only several hours to a few days.

Data set [3] is described as follows: Reported (literature) binding of glutamine to GlnBP. The settings on record: yielded by the reported ka and kd; read-out: dissociation constant. The procedure: This figure seeks to illustrate two things. First, the fluorescence intensity of acrylodan (λmax=515 nm) decreased with increasing concentration of glutamine. Concurrently, the luminescence intensity of Ru remained constant at λmax=610 nm. Second, the standard solutions of glutamine (0.1 to 6.4 mM) were prepared in glutamine-free Dulbecco's modified Eagle media (DMEM), a commonly used media for tissue culture. The resulting solutions were then diluted 1000× with PBS and used in the assay. The submicromolar sensitivity of the protein for glutamine remained virtually unchanged from that observed with the acrylodan label alone, as shown in DATTELBAUM et al., Anal. Biochem., 291:89-95 (2001), which is incorporated by reference herein. […]
The apparent binding constants were calculated by fitting the experimental results to the binding isotherm (DATTELBAUM et al., Anal. Biochem., 291:89-95 (2001), which is incorporated by reference herein). The binding constants for the single-labeled and doubled-labeled GlnBP were calculated to be 0.23±0.01 μM and 0.28±0.03 μM, respectively. […] The binding constant of GBP for glucose was calculated to be 0.78±0.07 μM, which also agrees well with the reported value of 0.8 μM (HELLINGA et al., Trends Biotechnol., 16:183-189 (1998), which is incorporated by reference herein). […]

Data set [4] is described as follows: Glutamine measurement in lymphoblast cell culture, GlnBP sensor versus YSI. The settings on record: cell culture medium. The method, then: The cells used in the cell culture came from two different cell lines, GM010178 and GM14649, both lymphoblasts from […]. These cell lines were obtained commercially from Coriell Cell Repositories, and have been grown in a solution of 15% Fetal Bovine Serum in RPMI Medium 1640 with GlutaMAX™ (Gibco™, Grand Island, N.Y.). For the 100 mL cell culture, 50 mL of fresh medium was mixed with 50 mL of inoculum in a 250 mL polystyrene flask, and then incubated in a CO2 incubator (Precision Scientific, Chicago, Ill.) until the color of the medium turned from red to yellow. 1 mL of sample was taken from the culture every 2 h for analysis. […] The glutamine concentration was then measured with a YSI 2700 Chemistry Analyzer and concurrently with the glutamine biosensor by diluting a small volume of sample 1,000 times. […] One microliter of sample was taken each time and the glutamine concentration was measured with the present biosensor thereafter.
As in the determination of glucose, analysis of glutamine by the GlnBP sensor was compared to the YSI Chemistry Analyzer. […] The hydrogen peroxide that is released is detected at the platinum electrode. Since glutamate oxidase can also detect the glutamate that is already present in the media, the reading of the glutamine sensor is actually the sum of glutamine and glutamate in the media. […]

The conditions of data set [5]: cited from earlier work.
Data set [6] in a line: Steady-state emission intensity ratio (I515/I610) of Ru-GlnBP-Acr versus glutamine. The data set is classed as binding. The method, then:
Steady-state emission spectra were recorded on a Varian Cary Eclipse spectrofluorimeter (Varin Instruments, Walnut Creek, Calif.). Time-resolved luminescence decays were measured on a frequency domain fluorimeter (ISS-Koala, Champaign, Ill.) with the following modifications. Blue LED LNG992CFBW (Panasonic, Secaucus, N.J.) driven by a current source was used as the excitation source. The modulation voltage was applied through bias T. The standard radiofrequency amplifier for the photomultiplier tubes was replaced with a ZHL-6A 1-circuits, Brooklyn, N.Y.) to enhance the low-frequency performance. The excitation light was filtered by 500-, 550-, and 650 FL07 short-wave pass filters (Andover, Salem, N.H.). The emission light was filtered by a 500 FH90 long-wave pass filter (Andover). Luminescence decay data were analyzed by nonlinear least-squares methods.
This figure seeks to illustrate two things. First, the fluorescence intensity of acrylodan (λmax=515 nm) decreased with increasing concentration of glutamine. Concurrently, the luminescence intensity of Ru remained constant at λmax=610 nm. Second, the standard solutions of glutamine (0.1 to 6.4 mM) were prepared in glutamine-free Dulbecco's modified Eagle media (DMEM), a commonly used media for tissue culture. The resulting solutions were then diluted 1000× with PBS and used in the assay. […]

Read-outs that look alike come from different tables or passages of the source.

B1: GlnBP-Acr: S179C variant of E. coli glutamine-binding protein labeled with acrylodan at cysteine 179 (protein, UniProt P0AEQ3 23-248, looked up, variant S179C)
Glutamine-binding periplasmic …: ADKKLVVATDTAFVPFEFKQGDKYVGFDVDLWAAIAKELKLDYELKPMDFSGIIPALQTKNVDLALAGITITDERKKAIDFSDGYYKSGLLVMVKANNNDVKSVKDLDGKVVAVKSGTGSVDYAKANIKTKDLRQFPNIDNAYMELGTNRADAVLHDTPNILYFIKTAGNGQFKAVGDCLEAQQYGIAFPKGSDELRDKVNGALKTLRENGTYNEIYKKWFGTEPK
modifications: acrylodan label at C179
On to B1, for which the Kd in data set [1] (listed as single-labeled GlnBP) was 230 ± 10 nM; in data set [1], 200 nM; in data set [3], 163 nM. Besides, in data set [2], the “change of calibration curve after storage” value is listed as “underwent some changes in 5 months after preparation, but was still responsive to glutamine”. In addition, the “selectivity: response to glutamine versus glutamate” value in data set [4] is on record as “responsive to glutamine but not to glutamate”. In data set [5] (reported, WEINER et al.), the “ka for the binding” value was 9.8e+07 M⁻¹ s⁻¹. Besides, the “kd for the dissociation” value in data set [5] (reported, WEINER et al.) was 16 s⁻¹.

B2: Ru-GlnBP-Acr: S179C GlnBP labeled at the cysteine with acrylodan and at the N-terminal with ruthenium bis-(2,2′-bipyridyl)-1,10-phenanthroline-9-isothiocyanate (protein, UniProt P0AEQ3 23-248, looked up, variant S179C)
Glutamine-binding periplasmic …: ADKKLVVATDTAFVPFEFKQGDKYVGFDVDLWAAIAKELKLDYELKPMDFSGIIPALQTKNVDLALAGITITDERKKAIDFSDGYYKSGLLVMVKANNNDVKSVKDLDGKVVAVKSGTGSVDYAKANIKTKDLRQFPNIDNAYMELGTNRADAVLHDTPNILYFIKTAGNGQFKAVGDCLEAQQYGIAFPKGSDELRDKVNGALKTLRENGTYNEIYKKWFGTEPK
modifications: acrylodan; N-terminal ruthenium complex label
notes: S179C GlnBP labeled at the cysteine with acrylodan and at the N-terminal with ruthenium bis-(2,2′-bipyridyl)-1,10-phenanthroline-9-isothiocyanate
On to B2, for which the “interference of other DMEM components with glutamine binding” value in data set [6] (DMEM diluted 1000× with PBS) is on record as “did not interfere with the binding of glutamine”. In addition, the Kd amounted to 720 ± 100 nM in data set [6] (from I515/I610 ratio, glutamine standards in DMEM diluted 1000× with PBS, 2.0 μM protein, read-out: apparent binding constant K′d for a single binding site) and 280 ± 30 nM in data set [1].

B3: wild type: wild type glutamine-binding protein, literature dissociation constant (protein, UniProt P0AEQ3 23-248, looked up)
Glutamine-binding periplasmic …: ADKKLVVATDTAFVPFEFKQGDKYVGFDVDLWAAIAKELKLDYELKPMDFSGIIPALQTKNVDLALAGITITDERKKAIDFSDGYYKSGLLVMVKANNNDVKSVKDLDGKVVAVKSGTGSVDYAKANIKTKDLRQFPNIDNAYMELGTNRADAVLHDTPNILYFIKTAGNGQFKAVGDSLEAQQYGIAFPKGSDELRDKVNGALKTLRENGTYNEIYKKWFGTEPK
With B3, in data set [5] (literature value, read-out: reported dissociation constant for the wild type), the Kd was 100 to 300 nM.
